The target in test [1] is T1, human LAG-3 protein with hFc tag (hLAG-3-hFc protein) (human, UniProt P18627 23-450).
T1 construct: also called immunogen 1; LAG-3 extracellular domain protein; not shown: human IgG Fc fragment (hFc) of the pCpC vector
T1 sequence: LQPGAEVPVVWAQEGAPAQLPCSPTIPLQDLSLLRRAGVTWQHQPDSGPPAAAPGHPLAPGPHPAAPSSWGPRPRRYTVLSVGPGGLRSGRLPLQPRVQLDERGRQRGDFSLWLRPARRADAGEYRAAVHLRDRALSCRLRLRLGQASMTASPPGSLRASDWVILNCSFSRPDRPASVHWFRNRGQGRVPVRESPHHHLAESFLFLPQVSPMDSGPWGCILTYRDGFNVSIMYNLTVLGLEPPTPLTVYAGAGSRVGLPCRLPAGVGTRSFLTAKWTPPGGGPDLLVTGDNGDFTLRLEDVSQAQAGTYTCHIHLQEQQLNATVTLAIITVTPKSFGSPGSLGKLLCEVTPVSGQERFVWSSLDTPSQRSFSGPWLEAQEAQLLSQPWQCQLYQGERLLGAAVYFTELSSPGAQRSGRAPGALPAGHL
Put plainly: ELISA, hLAG-3-hFc coated; 0.0667 nM. The protocol: (§1) The plate was sealed with plastic film and incubated overnight at 4° C. The plate was washed 2 times with the plate washing solution (PBS+0.01% Tween20) on the next day, and added with the blocking solution (PBS+0.01% Tween20+1% BSA) and blocked at room temperature for 1-2 hours. The blocking solution was poured out, and the plate was added with 50-100 μl of the antibody sample to be tested to each well, incubated at 37° C. for 1-2 hours, and washed 2-3 times with a plate washing solution (PBS+0.01% Tween20). HRP (horseradish peroxidase) labeled secondary antibody was added, and the plate was incubated at 37° C. for 1-2 hours, and washed 2-3 times with a plate washing solution (PBS+0.01% Tween20). 100 μl of TMB substrate was added to each well. After incubated at room temperature for 15-30 minutes, the plate was added with 100 μl of stop solution (1.0N HCl) to each well.

Test [2] deals with T2, mouse LAG-3 protein with hFc tag (mLAG-3-hFc protein) (mouse; human, UniProt Q61790 24-442).
T2 construct: Made in HEK293 cells; also called mouse LAG-3 extracellular domain protein; not shown: human IgG Fc fragment (hFc) of the pCpC vector
T2 sequence: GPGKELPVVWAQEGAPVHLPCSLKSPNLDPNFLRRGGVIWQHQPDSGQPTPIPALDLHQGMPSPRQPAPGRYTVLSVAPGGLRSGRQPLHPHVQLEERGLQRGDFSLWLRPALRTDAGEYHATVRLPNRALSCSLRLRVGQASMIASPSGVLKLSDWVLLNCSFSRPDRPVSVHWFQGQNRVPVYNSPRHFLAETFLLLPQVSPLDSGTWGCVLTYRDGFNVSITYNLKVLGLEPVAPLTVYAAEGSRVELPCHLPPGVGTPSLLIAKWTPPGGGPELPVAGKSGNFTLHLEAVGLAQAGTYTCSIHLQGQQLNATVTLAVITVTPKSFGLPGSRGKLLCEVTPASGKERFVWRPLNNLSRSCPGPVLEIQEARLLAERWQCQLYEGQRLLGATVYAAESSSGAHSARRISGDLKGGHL
Kind of test: ELISA, mLAG-3-hFc coated; 0.0007 nM. On the procedure: as §1
Background: ELISA stands for enzyme-linked immunosorbent assay.

From patent US20210155689A1 (SHANGHAI PHARMAEXPLORER, published 2021) come the findings set out here.

B1: 556F6B8 (LAG-3 mouse-human chimeric antibody) (antibody, V domains shown)
VH: RVQLKQSGPGLVQPSQSLSITCTVSGFSLIKYGVHWVRQSPGEGLEWLGVIWRGGITDYNAAFMSRLSITKDNSKSQVFFKMNSLQADDTAIYYCAKWDGPLAMDYWGQGTSVTVSS
VL: DIVMTQSHKFLSTSVGDRVSITCKASQDVGTTVAWYQQKPGQSPKLLIYWASTRHTGVPDRFTGSGSGTDFTLTISNVQSEDLADYFCQQYSSYPYTFGGGTKLEIK
notes: also called 556F8B8
With B1, the OD450 came to 1.94 OD450 in test [1] and 0.08 OD450 in test [2].
